Data taken from patent US20180282412A1 (ASIA BIOTECH PTE, published 2018).
Values belong to the binder of their own block, whether it stands above or below them.

Tests used:
CTLA-4 [1] = molecular target: T1, CTLA-4 (Homo sapiens (Human), UniProt P16410 36-161); assay: ELISA on coated CTLA-4, HRP anti-human kappa
T1 construct: also called CD28 family member CTLA-4
T1 sequence: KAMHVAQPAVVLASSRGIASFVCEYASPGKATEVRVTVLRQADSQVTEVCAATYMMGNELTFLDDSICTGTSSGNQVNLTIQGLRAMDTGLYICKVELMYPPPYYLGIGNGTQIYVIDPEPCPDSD
Method: (§1) The specificity of anti-PD-1 antibodies was examined by detecting their binding to CD28 family members ICOS, CTLA-4 and CD28 (R&D System) using standard ELISA. […] Finally, TMB was added as a substrate for HRP, and the absorbance was measured at 450 nm.

ICOS [2] = molecular target: T2, ICOS (Homo sapiens (Human), UniProt Q9Y6W8 21-140); assay: ELISA on coated ICOS, HRP anti-human kappa
T2 construct: also called CD28 family member ICOS
T2 sequence: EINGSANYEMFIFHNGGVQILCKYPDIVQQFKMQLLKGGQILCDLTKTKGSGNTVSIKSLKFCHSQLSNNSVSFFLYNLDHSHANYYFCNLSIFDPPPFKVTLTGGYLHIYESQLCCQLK
Method: as §1

[3] = molecular target: T3, Cynomolgus monkey PD-1-Fc (Cynomolgus monkey, UniProt B0LAJ3 25-170); assay: ELISA on coated Cynomolgus monkey PD-1-Fc, HRP anti-human kappa
T3 construct: not shown: The Fc part and any linker
Method: (§2) Finally, TMB was added as a substrate for HRP, and the absorbance was measured at 450 nm.

[4] = molecular target: T4, PD-1-Fc fusion protein (extracellular region of human PD-1 fused to human Fc) (human); assay: solution-equilibrium ELISA (Holash method): antibody preincubated with PD-1-Fc, free antibody captured on coated PD-1-Fc
T4 construct: unlabelled when coated on plates or immobilized; also called human PD-1-Fc; PD-1-Fc-biotin
Method: as §2

[5] = molecular target: T4, PD-1-Fc fusion protein (extracellular …); assay: ELISA on coated human PD-1-Fc, HRP anti-human kappa
Method: as §2

[6] = molecular target: T4, PD-1-Fc fusion protein (extracellular …); assay: ELISA on coated PD-1-Fc, HRP anti-human kappa
CD28 [7] = molecular target: T5, CD28 (Homo sapiens (Human), UniProt P10747 19-152); assay: ELISA on coated CD28, HRP anti-human kappa
T5 construct: also called CD28 family member CD28
Method: as §1

[8] = molecular target: T6, full-length human PD-1 expressed on transfected CHO-K1 cells (CHO/PD-1) (human, UniProt Q15116 25-288); assay: flow cytometry blocking assay, 10 ug/ml antibody with biotin-PD-L1-Fc (blocked ligand) on CHO/PD-1 cells, Avidin-PE
T6 construct: also called PD-1-transfected CHO cells; cell surface PD-1
Method: Then the mixture was added to the CHO/PD-1 cells. After 1 hour, the cells were washed and binding of was detected with Avidin-PE. Flow cytometric analysis was performed using a FACScan flow cytometry (Becton Dickinson).

mouse PD-1-Fc [9] = molecular target: T7, mouse PD-1-Fc (mouse, UniProt Q02242 25-169); assay: ELISA on coated mouse PD-1-Fc, HRP anti-human kappa
T7 construct: extracellular domain; not shown: Fc part
T7 sequence (looked up): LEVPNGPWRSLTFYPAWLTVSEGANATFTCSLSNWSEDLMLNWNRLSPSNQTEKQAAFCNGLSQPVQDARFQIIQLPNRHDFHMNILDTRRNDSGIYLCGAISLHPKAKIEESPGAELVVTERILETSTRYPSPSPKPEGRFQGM
Method: as §2

mouse PD-1-Fc [10] = molecular target: T7, mouse PD-1-Fc; assay: ELISA on coated mouse PD-1-Fc, HRP anti-mouse kappa
Method: as §2

[11] = molecular target: T4, PD-1-Fc fusion protein (extracellular …); assay: ELISA on coated PD-1-Fc, HRP anti-mouse kappa
ICOS [12] = molecular target: T2, ICOS; assay: ELISA on coated ICOS, HRP anti-mouse kappa
Method: as §1

CTLA-4 [13] = molecular target: T1, CTLA-4; assay: ELISA on coated CTLA-4, HRP anti-mouse kappa
Method: as §1

[14] = molecular target: T4, PD-1-Fc fusion protein (extracellular …); assay: ELISA on coated human PD-1-Fc, HRP anti-mouse kappa
Method: as §2

CD28 [15] = molecular target: T5, CD28; assay: ELISA on coated CD28, HRP anti-mouse kappa
Method: as §1

[16] = molecular target: T3, Cynomolgus monkey PD-1-Fc; assay: ELISA on coated Cynomolgus monkey PD-1-Fc, HRP anti-mouse kappa
Method: as §2

[17] = molecular target: T6, full-length human PD-1 expressed on …; assay: flow cytometry competition on CHO/PD-1 cells, competitor FITC labelled Nivolumab at a sub-saturating concentration
[18] = molecular target: T4, PD-1-Fc fusion protein (extracellular …); assay: competition ELISA on coated PD-1-Fc, competitor biotin labelled Nivolumab, HRP-avidin
[19] = molecular target: T4, PD-1-Fc fusion protein (extracellular …); assay: SPR (Biacore), PD-1-Fc immobilized, antibody as analyte
Method: (§3) Affinity constants were calculated from the ratio of the rate constants.

[20] = molecular target: T4, PD-1-Fc fusion protein (extracellular …); assay: ELISA on coated PD-1-Fc, HRP anti-human kappa; remark: listed apart in the source
[21] = molecular target: T6, full-length human PD-1 expressed on …; assay: flow cytometry on CHO/PD-1 cells, FITC anti-human antibody
Method: After 1 hour incubation, the cells were washed and an FITC labelled anti human antibody was incubated for 1 hour. Then the cells were washed and the flow cytometric analysis was performed using a FACScan flow cytometry.

[22] = molecular target: T4, PD-1-Fc fusion protein (extracellular …); assay: SPR (Biacore), ligand PD1-Fc-biotin, sample hu67D9, 25 C, fit 1:1 Binding
Method: as §3

[23] = molecular target: T4, PD-1-Fc fusion protein (extracellular …); assay: competition ELISA on coated PD-1-Fc, blocked ligand biotin labelled PDL1-Fc, HRP-avidin

- binding result (CTLA-4 [1]): no binding (tested: 1000 ng/ml)
- binding result (ICOS [2]): no binding (tested: 1000 ng/ml)
- EC50 (read off the curve) [3]: ~10 ng/mL
- Kd [4]: 16.9 pM
- EC50 (read off the curve) [5]: ~10 ng/mL
- EC50 (read off the curve) [6]: ~10 ng/mL
- binding result (CD28 [7]): no binding (tested: 1000 ng/ml)
- binding result [8]: binds
- binding result (mouse PD-1-Fc [9]): no binding (tested: 1000 ng/ml)
B1: 67D9 chimeric antibody (c67D9) (antibody, human IgG4 S228P, kappa, V domains shown)
VH: EVILVESGGGLVKPGGSLKVSCAASGFTFSTYGMSWVRQTPEKRLEWVATISGGGRDTYYPDTVKGRFTISRDNAKNTLYLQMSSLRSEDTALYYCARQDYGNYVWFAYWGQGTLVTVSA
VL: not shown
notes: Human kappa light chain (detected with anti-human kappa); also called chimeric Ab

- binding result (mouse PD-1-Fc [10]): no binding (tested: 1000 ng/ml)
- EC50 (read off the curve) [11]: ~10 ng/mL
- binding result (ICOS [12]): no binding (tested: 1000 ng/ml)
- Kd [4]: 12.4 pM
- binding result (CTLA-4 [13]): no binding (tested: 1000 ng/ml)
- EC50 (read off the curve) [14]: ~10 ng/mL
- binding result (CD28 [15]): no binding (tested: 1000 ng/ml)
- binding result [8]: binds
- EC50 (read off the curve) [16]: ~10 ng/mL
B2: 67D9 (mouse anti-PD-1 monoclonal antibody) (antibody, mouse IgG2a, V domains shown)
VH: B1 VH
VL: not shown
notes: Purified from hybridoma supernatant by Protein G; also called mouse Ab

- binding result (CTLA-4 [1]): no binding (tested: 1000 ng/ml)
- IC50 (read off the curve) [17]: ~5000 ng/mL
- binding result (ICOS [2]): no binding (tested: 1000 ng/ml)
- IC50 (read off the curve) [18]: ~5000 ng/mL
- EC50 (read off the curve) [3]: ~10 ng/mL
- Kd [19]: 3.21 pM
- EC50 (read off the curve) [20]: ~10 ng/mL
- Kd [4]: 15.4 pM
- EC50 (read off the curve) [5]: ~10 ng/mL
- EC50 (read off the curve) [21]: ~20 ng/mL
- EC50 (read off the curve) [6]: ~10 ng/mL
- binding result (CD28 [7]): no binding (tested: 1000 ng/ml)
- koff [22]: 2.77e-05 s⁻¹
- kon [22]: 8.63e+06 M⁻¹ s⁻¹
- binding result (mouse PD-1-Fc [9]): no binding (tested: 1000 ng/ml)
- IC50 (read off the curve) [23]: ~2 ng/mL
B3: anti-PD-1 humanized antibody hu67D9 (antibody, human IgG4 S228P, kappa, V domains shown)
VH: EVQLVESGGGLVQPGGSLRLSCAASGFTFSTYGMSWVRQAPGKGLEWVATISGGGRDTYYPDTVKGRFTISRDNSKNTLYLQMSSLRAEDTAVYYCARQDYGNYVWFAYWGQGTLVTVSS
VL: DIVLTQSPASLAVSPGQRATISCRASESVDSYGISFMHWFQQKPGQPPQLLIYSTSNRGSGVPARFSGSGSGTDFSLTINPVEADDTANYFCQQSQEVPWTFGQGTKVEIKR
notes: also called humanized 67D9; humanized Ab
